Measurements: patent US7393670B2, “Tyrosyl-tRNA synthetase variants” (Japan Science and Technology Agency, priority 2001, dated 2008)
Changes are numbered by the printed parent chain.

B1: VN: E. coli TyrRS double variant: position 37 Valine, position 195 Asparagine (protein, UniProt P0AGJ9 2-424, looked up, variant Y37V Q195N)
Tyrosine--tRNA ligase: ASSNLIKQLQERGLVAQVTDEEALAERLAQGPIALVCGFDPTADSLHLGHLVPLLCLKRFQQAGHKPVALVGGATGLIGDPSFKAAERKLNTEETVQEWVDKIRKQVAPFLDFDCGENSAIAANNYDWFGNMNVLTFLRDIGKHFSVNQMINKEAVKQRLNREDQGISFTEFSYNLLQGYDFACLNKQYGVVLNIGGSDQWGNITSGIDLTRRLHQNQVFGLTVPLITKADGTKFGKTEGGAVWLDPKKTSPYKFYQFWINTADADVYRFLKFFTFMSIEEINALEEEDKNSGKAPRAQYVLAEQVTRLVHGEEGLQAAKRITECLFSGSLSALSEADFEQLAQDGVPMVEMEKGADLMQALVDSELQPSRGQARKTIASNAITINGEKQSDPEYFFKEEDRLFGRFTLLRRGKKNYCLICWK
B2: AC: E. coli TyrRS double variant: position 37 Alanine, position 195 Cysteine (protein, UniProt P0AGJ9 2-424, looked up, variant Y37A Q195C)
Tyrosine--tRNA ligase: B1 Tyrosine--tRNA ligase with V36A, N194C
B3: VS: E. coli TyrRS double variant: position 37 Valine, position 195 Serine (protein, UniProt P0AGJ9 2-424, looked up, variant Y37V Q195S)
Tyrosine--tRNA ligase: B1 Tyrosine--tRNA ligase with N194S
B4: 37V: E. coli TyrRS variant: position 37 Valine, position 195 Glutamine (protein, UniProt P0AGJ9 2-424, looked up, variant Y37V)
Tyrosine--tRNA ligase: B1 Tyrosine--tRNA ligase with N194Q
B5: VA: E. coli TyrRS double variant: position 37 Valine, position 195 Alanine (protein, UniProt P0AGJ9 2-424, looked up, variant Y37V Q195A)
Tyrosine--tRNA ligase: B1 Tyrosine--tRNA ligase with N194A
B6: LC: E. coli TyrRS double variant: position 37 Leucine, position 195 Cysteine (protein, UniProt P0AGJ9 2-424, looked up, variant Y37L Q195C)
Tyrosine--tRNA ligase: B1 Tyrosine--tRNA ligase with V36L, N194C
B7: AS: E. coli TyrRS double variant: position 37 Alanine, position 195 Serine (protein, UniProt P0AGJ9 2-424, looked up, variant Y37A Q195S)
Tyrosine--tRNA ligase: B1 Tyrosine--tRNA ligase with V36A, N194S
B8: IA: E. coli TyrRS double variant: position 37 Isoleucine, position 195 Alanine (protein, UniProt P0AGJ9 2-424, looked up, variant Y37I Q195A)
Tyrosine--tRNA ligase: B1 Tyrosine--tRNA ligase with V36I, N194A

Test: Aminoacylation activity by Lloyd's method (release of pyrophosphates)
Type: biochemical
Conditions: 3-iodotyrosine versus tyrosine, from Table 4
Protocol: In the second method, Lloyd's method (Nucleic Acids Research, 23:2886-2892, 1995) was carried out without alteration.
In the second method, the activity was assayed by Lloyd's method (Nucleic Acids Research, 23:2886-2892, 1995). Each enzyme obtained was incubated with 0.4 ml of the buffer B containing 1 mM ATP (Seikagaku Corporation), 100 μM purified crude tyrosyl-tRNA, 200 μM tyrosine or 3-iodotyrosine at 37° C. for 6 min. The aminoacylation activity was represented as concentrations of released phosphate per min.
In the case of B1, the “relative tyrosine analogue to tyrosine ratio” value is reported as “inferior to VC”.
In the case of B2, the “relative tyrosine analogue to tyrosine ratio” value is reported as “inferior to VC”.
In the case of B3, the “relative tyrosine analogue to tyrosine ratio” value is reported as “inferior to VC”.

Same assay, conditions: at 37° C.; 200 μM 3-iodotyrosine
In the case of B1, the “Initial velocity of release of pyrophosphates, 3-iodotyrosine” value (“Initial velocity … 3-iodotyrosine” below) is reported as 6.9 nM PPi/min/nM enzyme.
In the case of B4, the “Initial velocity … 3-iodotyrosine” value is reported as 73 nM PPi/min/nM enzyme.
With B2 the “Initial velocity … 3-iodotyrosine” value was 3.1 nM PPi/min/nM enzyme.
With B3 the “Initial velocity … 3-iodotyrosine” value was 18 nM PPi/min/nM enzyme.
With B5 the “Initial velocity … 3-iodotyrosine” value was 6.6 nM PPi/min/nM enzyme.

Same assay, conditions: at 37° C.; 200 μM tyrosine
With B1 the “Initial velocity of release of pyrophosphates, Tyrosine” value was 2.1 nM PPi/min/nM enzyme.
In the case of B4, the “Initial velocity of release of pyrophosphates, Tyrosine” value is reported as 140 nM PPi/min/nM enzyme.
With B2 the “Initial velocity of release of pyrophosphates, Tyrosine” value was 1.0 nM PPi/min/nM enzyme.
With B3 the “Initial velocity of release of pyrophosphates, Tyrosine” value was 19 nM PPi/min/nM enzyme.
With B5 the “Initial velocity of release of pyrophosphates, Tyrosine” value was 3.7 nM PPi/min/nM enzyme.

Test: Aminoacylation reaction, simplified Lloyd's method, inorganic phosphate detected with Biomol green
Type: biochemical
Parameters: key: ***: the reaction could be detected strongly at 25 nM; **: strongly at 250 nM; *: weakly at 250 nM; the activity is high in the order of *** > ** > * > —
Conditions: Table 3; tyrosine 200 μM; 37° C. for 4 min
Protocol: (§1) In the first method, Lloyd's method (Nucleic Acids Research, 23:2886-2892, 1995) where inorganic phosphate produced by pyrophosphatase-drived hydrolysis of pyrophosphate which was one of the reaction products of the aminoacylation reactions was quantified was simplified, and the inorganic phosphate was detected using Biomol green (Funakoshi) to carry out the measurement of the aminoacylation reaction.
(§2) Amino acid concentrations were 200 μM and 1 mM for tyrosine and 3-iodotyrosine, respectively.
(§3) The method where the aminoacylation reaction is measured by quantifying inorganic phosphate produced by pyrophosphatase-drived hydrolysis of pyrophosphate which is one of reaction products of the aminoacylation has been described by Lloyd et al. (Nucleic Acids Research, 23:2886-2892, 1995). In one method of the invention, this method was simplified and the aminoacylation reaction was measured by the detection of inorganic phosphate using Biomol green (Funakoshi). […] To stop the reaction, 0.1 ml of Bio mol green was added. Absorbance of its supernatant was measured at 630 nm.
With B6 the “Aminoacylation activity, Tyrosine” value was “*”.
In the case of B7, the “Aminoacylation activity, Tyrosine” value is reported as “*”.
For B4, the “Aminoacylation activity, Tyrosine” value was “***”.
For B2, the “Aminoacylation activity, Tyrosine” value was “*”.
For B3, the “Aminoacylation activity, Tyrosine” value was “**”.
In the case of B5, the “Aminoacylation activity, Tyrosine” value is reported as “*”.
In the case of B8, the “Aminoacylation activity, Tyrosine” value is reported as “*”.

Test: as above
Type: biochemical
Parameters: key: ***: the reaction could be detected strongly at 25 nM; **: strongly at 250 nM; *: weakly at 250 nM; the activity is high in the order of *** > ** > * > —
Conditions: Table 3; 3-iodotyrosine 1 mM; 37° C. for 4 min
Protocol: as §1, §2
(§4) The method where the aminoacylation reaction is measured by quantifying inorganic phosphate produced by pyrophosphatase-drived hydrolysis of pyrophosphate which is one of reaction products of the aminoacylation has been described by Lloyd et al. (Nucleic Acids Research, 23:2886-2892, 1995). In one method of the invention, this method was simplified and the aminoacylation reaction was measured by the detection of inorganic phosphate using Biomol green (Funakoshi). Each enzyme obtained was incubated with 0.05 ml of the buffer B containing 1 mM ATP (Seikagaku Corporation), 30 μM purified crude tyrosyl-tRNA, and 100 μM tyrosine or 0.5 mM 3-iodotyrosine at 37° C. for one hour. To stop the reaction, 0.1 ml of Bio mol green was added. Absorbance of its supernatant was measured at 630 nm.
With B1 the “Aminoacylation activity, 3-iodotyrosine” value was “**”.
In the case of B6, the “Aminoacylation activity, 3-iodotyrosine” value is reported as “*”.
With B7 the “Aminoacylation activity, 3-iodotyrosine” value was “*”.
With B4 the “Aminoacylation activity, 3-iodotyrosine” value was “***”.
With B2 the “Aminoacylation activity, 3-iodotyrosine” value was “**”.
With B3 the “Aminoacylation activity, 3-iodotyrosine” value was “**”.
With B5 the “Aminoacylation activity, 3-iodotyrosine” value was “**”.
In the case of B8, the “Aminoacylation activity, 3-iodotyrosine” value is reported as “*”.

Test: as above
Type: biochemical
Parameters: key: ***: the aminoacylation reaction was detected by a microplate reader in the reaction at enzyme concentrations of 50 nM; **: 500 nM; *: 5 μM; the activity is high in the order of *** > ** > * > —
Conditions: Table 2; tyrosine 200 μM; 37° C. for 4 min
Protocol: as §1, §2, §3
In the case of B4, the “Aminoacylation activity, Tyrosine” value is reported as “***”.

Same assay, conditions: Table 3; tyrosine 200 μM; 37° C. for 4 min
For B1, the “Aminoacylation activity, Tyrosine” value was “—”.

Test: as above
Type: biochemical
Parameters: key: ***: the aminoacylation reaction was detected by a microplate reader in the reaction at enzyme concentrations of 50 nM; **: 500 nM; *: 5 μM; the activity is high in the order of *** > ** > * > —
Conditions: Table 2; 3-iodotyrosine 1 mM; 37° C. for 4 min
Protocol: as §1, §2, §4
For B4, the “Aminoacylation activity, 3-iodotyrosine” value was “***”.
